Kd data for three molecules are collected here from patent EP4700046A1.

Usually Kd stands for the concentration at which binding is half-saturated. A higher Kd goes with lower affinity.

Substitutions are numbered along the chain they refer to.

B1: IgG_18 (antibody, part only; not given: VL CDR2; constant regions, V domains shown, part only)
VH: EVQLLESGGGLVQPGGSLRLSCAASGFTFSNYAMSWVRQAPGKGLEWVSSISPSGSSKYYADSVKGRFTISRDNSKNTLYLQMNSLRAEDTAVYYCAKHNRHFDYWGQGTLVTVSS
VL, part: QSVLTQPPSASGTPGQRVTISCTGSSSNIGSHYVSWYQQLPGTAPKLLIYHRPSGVPDRFSGSKSGTSASLAISGLRSEDEADYYCGSWDDSLNAYVFGGGTKLTVL
B2: IgG_56 (antibody, part only; not given: VL CDR2; constant regions, V domains shown, part only)
VH: EVQLLESGGGLVQPGGSLRLSCAASGFTFSGYPMSWVRQAPGKGLEWVSSISSSGGNTYYADSVKGRFTISRDNSKNTLYLQMNSLRAEDTAVYYCARFGIHHPDRALYYANAMDVWGQGTLVTVSS
VL, part: B1 VL, part with T23S, S31N, H32N, Y33D, S35N, H51Q, G87A, S88T, D91A, N94S
B3: IgG_54 (antibody, part only; not given: VL CDR2; constant regions, V domains shown, part only)
VH: EVQLLESGEGLVQPGGSLRLSCAASGFTFSNYSMSWVRQAPGKGLEWVSGISSGGGSKYYADSVKGRFTISRDNSKNTLYLQMNSLRAEDTAVYYCARQATAFDYWGQGTLVTVSS
VL, part: B1 VL, part with S31N, H32N, Y33S, S35T, H51N, S88T, N94S, G99C

This assay deals with 6xHis-SUMO-CXCR2(NTD) (human) (UniProt P25025). Kind of assay: BLI (Octet R4), His-tagged SUMO-CXCR2(NTD) on HIS1K biosensor, IgG as analyte, 1:1 model. On the technique in general: In BLI a coated tip is dipped into the sample, and binding shifts an interference pattern.
Chain of UniProt P25025 (P25025 1-48): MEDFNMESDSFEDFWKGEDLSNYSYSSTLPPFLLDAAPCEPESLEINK
Molecule B1 showed a dissociation constant Kd of 8.9 nM.
The value for B2 was 5.6 nM; that for B3 was 250 nM.
